[ ]: non-standard residue; d: D form.
Biological target: integrin receptors on NIH/3T3 fibroblast cells
Test: cell-based or functional assay

decrease in Cy3B fluorescence under individual cells, Ttol=12 pN duplexes: 13.7%
decrease in Cy3B fluorescence under individual cells, Ttol=56 pN duplex: 6.5%
fold decrease in MCR signal of controls (duplexes lacking cRGDfK, scrambled duplexes) against the 12 pN cRGDfK surface: 150 fold
Binder: cyclo(RGD[dF]K) (also: biotin-labelled (cRGDfK-biotin), bound via streptavidin) [cyclic Arg-Gly-Asp-d-Phe-Lys (cRGDfK) peptide]

From patent US20170260575A1
